Data as given in the Human Domainome abundance scans (Beltran et al. 2025).
± gives the uncertainty stated by the source.

test: abundance fitness (aPCA) (normalised: wild type 0, dead -1); higher = more abundant; growth selection in yeast, the domain comes from the species named; details: Homo sapiens

| Substance | abundance fitness |
| --- | --- |
| Transcriptional activator Myb Q200T, P10242 | -0.135 ± 0.072 |
| Transcriptional activator Myb Q200V, P10242 | -0.087 ± 0.074 |
| Transcriptional activator Myb Q200W, P10242 | -0.345 ± 0.094 |
| Transcriptional activator Myb Q200Y, P10242 | -0.259 ± 0.12 |
| Transcriptional activator Myb R153C, P10242 | -0.451 ± 0.098 |
| Transcriptional activator Myb R153D, P10242 | -0.25 ± 0.095 |
| Transcriptional activator Myb R153E, P10242 | -0.144 ± 0.079 |
| Transcriptional activator Myb R153F, P10242 | -0.068 ± 0.094 |
| Transcriptional activator Myb R153I, P10242 | -0.284 ± 0.13 |
| Transcriptional activator Myb R153L, P10242 | -0.098 ± 0.073 |
| Transcriptional activator Myb R153M, P10242 | -0.11 ± 0.11 |
| Transcriptional activator Myb R153N, P10242 | 0.02 ± 0.13 |
| Transcriptional activator Myb R153P, P10242 | -1.12 ± 0.18 |
| Transcriptional activator Myb R153Q, P10242 | -0.031 ± 0.092 |
| Transcriptional activator Myb R153S, P10242 | -0.121 ± 0.06 |
| Transcriptional activator Myb R153T, P10242 | -0.125 ± 0.14 |
| Transcriptional activator Myb R153V, P10242 | -0.199 ± 0.084 |
| Transcriptional activator Myb R153Y, P10242 | -0.084 ± 0.11 |
| Transcriptional activator Myb R176A, P10242 | -0.217 ± 0.065 |
| Transcriptional activator Myb R176C, P10242 | -0.148 ± 0.12 |
| Transcriptional activator Myb R176D, P10242 | -0.66 ± 0.14 |
| Transcriptional activator Myb R176E, P10242 | -0.677 ± 0.11 |

| Substance | abundance fitness |
| --- | --- |
| Transcriptional activator Myb R176F, P10242 | -0.733 ± 0.25 |
| Transcriptional activator Myb R176G, P10242 | -0.728 ± 0.062 |
| Transcriptional activator Myb R176H, P10242 | 0.043 ± 0.16 |
| Transcriptional activator Myb R176I, P10242 | -0.225 ± 0.16 |
| Transcriptional activator Myb R176K, P10242 | -0.022 ± 0.097 |
| Transcriptional activator Myb R176L, P10242 | -0.423 ± 0.074 |
| Transcriptional activator Myb R176M, P10242 | -0.584 ± 0.11 |
| Transcriptional activator Myb R176N, P10242 | -0.905 ± 0.2 |
| Transcriptional activator Myb R176P, P10242 | -0.87 ± 0.15 |
| Transcriptional activator Myb R176Q, P10242 | -0.513 ± 0.16 |
| Transcriptional activator Myb R176S, P10242 | -0.457 ± 0.072 |
| Transcriptional activator Myb R176T, P10242 | -0.223 ± 0.096 |
| Transcriptional activator Myb R176V, P10242 | -0.22 ± 0.066 |
| Transcriptional activator Myb R176W, P10242 | -0.436 ± 0.064 |
| Transcriptional activator Myb R176Y, P10242 | -0.651 ± 0.14 |
| Transcriptional activator Myb R190A, P10242 | -0.023 ± 0.07 |
| Transcriptional activator Myb R190C, P10242 | -0.117 ± 0.18 |
| Transcriptional activator Myb R190D, P10242 | -0.073 ± 0.13 |
| Transcriptional activator Myb R190E, P10242 | -0.161 ± 0.093 |
| Transcriptional activator Myb R190F, P10242 | 0.009 ± 0.13 |
| Transcriptional activator Myb R190H, P10242 | -0.189 ± 0.17 |
| Transcriptional activator Myb R190I, P10242 | -0.265 ± 0.14 |

| Substance | abundance fitness |
| --- | --- |
| Transcriptional activator Myb R190K, P10242 | 0.137 ± 0.12 |
| Transcriptional activator Myb R190L, P10242 | -0.131 ± 0.061 |
| Transcriptional activator Myb R190M, P10242 | 0.06 ± 0.14 |
| Transcriptional activator Myb R190N, P10242 | -0.196 ± 0.19 |
| Transcriptional activator Myb R190P, P10242 | -0.335 ± 0.083 |
| Transcriptional activator Myb R190Q, P10242 | 0.026 ± 0.12 |
| Transcriptional activator Myb R190S, P10242 | -0.074 ± 0.065 |
| Transcriptional activator Myb R190T, P10242 | -0.131 ± 0.08 |
| Transcriptional activator Myb R190V, P10242 | -0.01 ± 0.089 |
| Transcriptional activator Myb R190W, P10242 | -0.075 ± 0.11 |
| Transcriptional activator Myb R190Y, P10242 | -0.461 ± 0.18 |
| Transcriptional activator Myb R191A, P10242 | 0.036 ± 0.075 |
| Transcriptional activator Myb R191C, P10242 | 0.172 ± 0.15 |
| Transcriptional activator Myb R191D, P10242 | 0.117 ± 0.12 |
| Transcriptional activator Myb R191E, P10242 | 0.004 ± 0.086 |
| Transcriptional activator Myb R191F, P10242 | -0.164 ± 0.21 |
| Transcriptional activator Myb R191G, P10242 | -0.038 ± 0.068 |
| Transcriptional activator Myb R191I, P10242 | -0.136 ± 0.16 |
| Transcriptional activator Myb R191K, P10242 | -0.192 ± 0.12 |
| Transcriptional activator Myb R191L, P10242 | -0.058 ± 0.077 |
| Transcriptional activator Myb R191M, P10242 | -0.091 ± 0.13 |
| Transcriptional activator Myb R191N, P10242 | -0.07 ± 0.13 |

| Substance | abundance fitness |
| --- | --- |
| Transcriptional activator Myb R191P, P10242 | 0.047 ± 0.11 |
| Transcriptional activator Myb R191S, P10242 | -0.052 ± 0.076 |
| Transcriptional activator Myb R191T, P10242 | 0.022 ± 0.14 |
| Transcriptional activator Myb R191V, P10242 | 0.017 ± 0.094 |
| Transcriptional activator Myb R191W, P10242 | -0.017 ± 0.088 |
| Transcriptional activator Myb R191Y, P10242 | -0.423 ± 0.16 |
| Transcriptional activator Myb S146A, P10242 | -0.233 ± 0.15 |
| Transcriptional activator Myb S146F, P10242 | -0.021 ± 0.19 |
| Transcriptional activator Myb S146G, P10242 | -0.159 ± 0.2 |
| Transcriptional activator Myb S146K, P10242 | -0.344 ± 0.34 |
| Transcriptional activator Myb S146L, P10242 | -0.299 ± 0.43 |
| Transcriptional activator Myb S146P, P10242 | -0.108 ± 0.26 |
| Transcriptional activator Myb S146V, P10242 | -0.017 ± 0.29 |
| Transcriptional activator Myb S187A, P10242 | -0.075 ± 0.093 |
| Transcriptional activator Myb S187C, P10242 | -0.061 ± 0.1 |
| Transcriptional activator Myb S187D, P10242 | 0.077 ± 0.12 |
| Transcriptional activator Myb S187E, P10242 | -0.001 ± 0.067 |
| Transcriptional activator Myb S187F, P10242 | -0.26 ± 0.085 |
| Transcriptional activator Myb S187G, P10242 | -0.023 ± 0.049 |
| Transcriptional activator Myb S187H, P10242 | -0.011 ± 0.17 |
| Transcriptional activator Myb S187I, P10242 | -0.033 ± 0.14 |
| Transcriptional activator Myb S187K, P10242 | -0.058 ± 0.1 |

| Substance | abundance fitness |
| --- | --- |
| Transcriptional activator Myb S187L, P10242 | -0.019 ± 0.066 |
| Transcriptional activator Myb S187M, P10242 | -0.188 ± 0.13 |
| Transcriptional activator Myb S187N, P10242 | -0.161 ± 0.14 |
| Transcriptional activator Myb S187P, P10242 | -0.589 ± 0.11 |
| Transcriptional activator Myb S187Q, P10242 | 0.125 ± 0.11 |
| Transcriptional activator Myb S187R, P10242 | -0.054 ± 0.049 |
| Transcriptional activator Myb S187T, P10242 | 0.124 ± 0.1 |
| Transcriptional activator Myb S187V, P10242 | -0.081 ± 0.061 |
| Transcriptional activator Myb S187W, P10242 | -0.108 ± 0.07 |
| Transcriptional activator Myb S202C, P10242 | -0.108 ± 0.1 |
| Transcriptional activator Myb S202D, P10242 | -0.069 ± 0.087 |
| Transcriptional activator Myb S202E, P10242 | 0.042 ± 0.073 |
| Transcriptional activator Myb S202F, P10242 | -0.045 ± 0.093 |
| Transcriptional activator Myb S202G, P10242 | 0.027 ± 0.047 |
| Transcriptional activator Myb S202I, P10242 | -0.021 ± 0.19 |
| Transcriptional activator Myb S202L, P10242 | -0.181 ± 0.073 |
| Transcriptional activator Myb S202M, P10242 | -0.186 ± 0.12 |
| Transcriptional activator Myb S202N, P10242 | -0.237 ± 0.18 |
| Transcriptional activator Myb S202P, P10242 | -0.061 ± 0.14 |
| Transcriptional activator Myb S202Q, P10242 | -0.102 ± 0.16 |
